Reference: patent US20090005257A1 (published 2009)
Positions count from the first letter of the chain named. Names may count otherwise.

T1: human Tumor Necrosis Factor Receptor 1 (TNFR1) expressed on HeLa cells (human, UniProt P19438 30-455)
T1 sequence (looked up): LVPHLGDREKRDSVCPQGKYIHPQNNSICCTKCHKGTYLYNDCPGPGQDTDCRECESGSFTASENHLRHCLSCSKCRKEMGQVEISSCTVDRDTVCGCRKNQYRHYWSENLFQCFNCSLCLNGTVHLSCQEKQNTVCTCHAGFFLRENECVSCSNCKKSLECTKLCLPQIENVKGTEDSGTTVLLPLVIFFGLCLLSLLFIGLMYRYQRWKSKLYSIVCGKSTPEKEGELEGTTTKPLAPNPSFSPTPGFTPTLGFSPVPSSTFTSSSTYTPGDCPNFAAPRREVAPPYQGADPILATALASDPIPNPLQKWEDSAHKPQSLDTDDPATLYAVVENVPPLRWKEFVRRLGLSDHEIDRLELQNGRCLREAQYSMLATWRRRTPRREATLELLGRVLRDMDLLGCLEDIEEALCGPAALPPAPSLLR

T2: TNF receptor 1 Fc fusion protein (human, UniProt P19438 30-211)
T2 construct: Bought; also called recombinant TNF receptor 1 (p55); human Tumor Necrosis Factor Receptor 1; not shown: Fc part of the bought fusion protein (captured by an anti-human Fc antibody)
T2 sequence (looked up): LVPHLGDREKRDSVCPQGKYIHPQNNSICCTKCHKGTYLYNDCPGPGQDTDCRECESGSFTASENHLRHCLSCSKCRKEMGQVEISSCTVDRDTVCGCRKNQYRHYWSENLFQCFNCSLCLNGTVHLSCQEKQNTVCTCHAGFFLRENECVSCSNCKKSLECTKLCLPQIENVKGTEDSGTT

B1: TAR1-5-19-Y49D (other)
VL: DIQMTQSPSSLSASVGDRVTITCRASQSIDSYLHWYQQKPGKAPKLLIDSASELQSGVPSRFSGSGSGTDFTLTISSLQPEDFATYYCQQVVWRPFTFGQGTKVEIKR
B2: TAR1-5-19-Y49N (other)
VL: B1 VL with D49N
B3: HEL4 (other)
VH: EVQLLESGGGLVQPGGSLRLSCAASGFRISDEDMGWVRQAPGKGLEWVSSIYGPSGSTYYADSVKGRFTISRDNSKNTLYLQMNSLRAEDTAVYYCASALEPLSEPLGFWGQGTLVTVSS
notes: Human VH dAb against hen egg lysozyme; also called dAb HEL4; Fd-myc-HEL4
B4: TAR2-10-27 (other)
VH: EVQLLESGGGLVQPGGSLRLSCAASGFTFEWYWMGWVRQAPGKGLEWVSAISGSGGSTYYADSVKGRFTISRDNSKNTLYLQMNSLRAEDAAVYYCAKVKLGGGPNFGYRGQGTLVTVSS
notes: Human VH3 single domain (dAb) against human TNFR1, tested as soluble protein purified on protein A beads
B5: TAR2-10-27-Y32D (other)
VH: B4 VH with Y32D
B6: anti-HSA VH clone #1 (other)
VH: EVQLLESGGGLVQPGGSLRLSCAASGFTFDLYDMSWVRQAPGKGLEWVSSIVNSGVRTYYADSVKGRFTISRDNSKNTLYLQMNSLRAEDTAVYYCAKLNQSYHWDFDYWGQGTLVTVSS
notes: From library 4G (human VH3, DP47 germline gene + JH4 segment)
B7: anti-HSA VH clone #6 (other)
VH: EVQLLESGGGLVQPGGSLRLSCAASGFTFHRYSMSWVRQAPGKGLEWVSTILPGGDVTYYADSVKGRFTISRDNSKNTLYLQMNSLRAEDTAVYYCAKQTPDYMFDYWGQGTLVTVSS
notes: As clone #1
B8: anti-HSA VH clone #2 (other)
VH: EVQLLESGGGLVQPGGSLRLSCAASGFTFSDYRMSWVRQAPGKGLEWVSTIISNGKFTYYADSVKGRFTISRDNSKNTLYLQMNSLRAEDTAVYYCAKQDWMYMFDYWGQGTLVTVSS
notes: As clone #1
B9: anti-HSA VH clone #4 (other)
VH: B7 VH with H30Y, R31D, S33N, L52T, P53H, G54T, D56G, T100N, D102S, M104Q
notes: As clone #1
B10: anti-HSA VH clone #3 (other)
VH: EVQLLESGGGLVQPGGSLRLSCAASGFTFSKYWMSWVRQAPGKGLEWVSSIDFMGPHTYYADSVKGRFTISRDNSKNTLYLQMNSLRAEDTAVYYCAKGRTSMLPMKGKFDYWGQGTLVTVSS
notes: As clone #1
B11: anti-HSA VH clone #7 (other)
VH: EVQLLESGGGLVQPGGSLRLSCAASGFTFWKYNMAWVRQAPGKGLEWVSTILGEGNNTYYADSVKGRFTISRDNSKNTLYLQMNSLRAEDTAVYYCAKTMDYKFDYWGQGTLVTVSS
notes: As clone #1
B12: anti-HSA VH clone #10 (other)
VH: B7 VH with H30D, R31E, S33N, G54H, V57R, T100D, D102L, M104R
notes: As clone #1; the one clone recovered with the heat step
B13: TAR1-5-19 (other)
VL: B1 VL with D49Y
notes: Vκ1 single domain (dAb) specific for TNF-α; also called PEP1-5-19
B14: DP47 F27D/F29V (other, name in Kabat numbering)
VH: EVQLLESGGGLVQPGGSLRLSCAASGDTVSSYAMSWVRQAPGKGLEWVSAISGSGGSTYYADSVKGRFTISRDNSKNTLYLQMNSLRAEDTAVYYCAKSYGAFDYWGQGTLVTVSS
B15: DP47 F27D/F29V/Y32D/S35G (other, name in Kabat numbering)
VH: B14 VH with Y32D, S35G
notes: kept apart as printed
B16: DP47 S30N/A33D (other, name in Kabat numbering)
VH: B14 VH with D27F, V29F, S30N, A33D
notes: also called A33D/S30N
B17: DP47 S53P/G54D (other, name in Kabat numbering)
VH: B14 VH with D27F, V29F, S54P, G55D
B18: pA-C36 (other)
VH: EVQLLESGGGLVQPGGSLRLSCAASGVNVSHDSMTWVRQAPGKGLEWVSAIRGPNGSTYYADSVKGRFTISRDNSKNTLYLQMNSLRAEDTAVYYCASGARHADTERPPSQQTMPFWGQGTLVTVSS
notes: Frameworks of DP47d, ranges as for HEL4; also called pA-36
B19: DP47 quadruple mutant F27D/F29V/S35G/Y32E (other, name in Kabat numbering)
VH: B14 VH with Y32E, S35G
B20: pA-C13 (other)
VH: EVQLLESGGGLVQPGGSLRLSCAASGDMVNDKDMSWVRQAPGKGLEWVSSISTENGSTYYADSVKGRFTISRDNSKNTLYLQMNSLRAEDTAVYYCAGVRDEVAMGENPDLSYWGQGTLVTVSS
notes: From the library made by diversifying the CDR loops of DP47d; frameworks of DP47d, ranges as for HEL4; also called Clone 13
B21: pA-C47 (other)
VH: EVQLLESGGGLVQPGGSLRLSCAASGYNITDENMAWVRQAPGKGLEWVSTIAADNGSTYYADSVKGRFTISRDNSKNTLYLQMNSLRAEDTAVYYCATTEAAGVEEDNVRSWGQGTLVTVSS
notes: Frameworks of DP47d, ranges as for HEL4
B22: pA-C59 (other)
VH: EVQLLESGGGLVQPGGSLRLSCAASGDSISDDYMAWVRQAPGKGLEWVSSIDDKNGSTYYADSVKGRFTISRDNSKNTLYLQMNSLRAEDTAVYYCAGGDGQAHKVDYWGQGTLVTVSS
notes: as for B21
B23: pA-C76 (other)
VH: EVQLLESGGGLVQPGGSLRLSCAASGDNVISDDMSWVRQAPGKGLEWVSTINGPSGSTYYADSVKGRFTISRDNSKNTLYLQMNSLRAEDTAVYYCAANGEDTDMLDMWGDRSAALKSWGQGTLVTVSS
notes: as for B21
B24: TAR2-10-27-F27D (other)
VH: B4 VH with F27D
notes: Soluble dAb

These binders were tested against T3, TNF-α (UniProt P01375 77-233) (assay: RBA-ELISA).
T3 construct: also called tumour necrosis factor
T3 sequence (P01375 77-233 limits assumed): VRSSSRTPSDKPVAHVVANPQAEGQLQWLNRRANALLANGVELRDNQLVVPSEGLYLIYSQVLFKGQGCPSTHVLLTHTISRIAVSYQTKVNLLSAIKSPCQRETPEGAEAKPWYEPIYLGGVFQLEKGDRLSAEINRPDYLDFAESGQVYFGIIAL

B1 and B2 fall in the same range of “fold reduction of binding against TAR1-5-19” value: 6 to 20 fold for the first, 6 to 20 fold for the second.

Each binder was assayed against T4, hen egg lysozyme (hen, UniProt P00698 19-147) (assay: phage ELISA on immobilised HEL).
T4 construct: also called HEL; hen egg white lysozyme
T4 sequence (P00698 19-147): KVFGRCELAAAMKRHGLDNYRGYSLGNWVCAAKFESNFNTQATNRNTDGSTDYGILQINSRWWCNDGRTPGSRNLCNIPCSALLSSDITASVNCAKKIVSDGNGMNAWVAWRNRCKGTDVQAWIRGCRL
Description: Phage ELISA assays. The ELISA wells were coated overnight at 4° C. with one of the following ligands: 10 μg/ml of protein A in PBS, 10 μg/ml of mAb 9E10 in PBS, or 3 mg/ml of HEL in 0.1 M NaHCO₃ buffer, pH 9.6. After blocking the wells with PBS containing 2% Tween-20 (PBST), a dilution series of phage in PBST was incubated for 2 h. After washing with PBS, bound phage were detected as follows. In assays for binding to REL, phage was detected directly using a conjugate of horseradish peroxidase with an anti-M13 monoclonal antibody (Amersham) using 3,3′,5,5′-tetramethylbenzidine as substrate.

B3: binds.

Each binder was assayed against T1, human Tumor Necrosis Factor Receptor 1 … (assay: cell-based or functional assay).

Going from B4 to B5, the “IC50 (read off the curve), inhibition of TNF-induced IL-8 secretion of HeLa cells” value falls from about 10 nM to about 5 nM (2-fold).

Each binder was assayed against T5, human serum albumin (human, UniProt P02768 25-609) (assay: phage ELISA on HSA, heated against unheated).
T5 construct: also called HSA
T5 sequence (P02768 25-609 limits assumed): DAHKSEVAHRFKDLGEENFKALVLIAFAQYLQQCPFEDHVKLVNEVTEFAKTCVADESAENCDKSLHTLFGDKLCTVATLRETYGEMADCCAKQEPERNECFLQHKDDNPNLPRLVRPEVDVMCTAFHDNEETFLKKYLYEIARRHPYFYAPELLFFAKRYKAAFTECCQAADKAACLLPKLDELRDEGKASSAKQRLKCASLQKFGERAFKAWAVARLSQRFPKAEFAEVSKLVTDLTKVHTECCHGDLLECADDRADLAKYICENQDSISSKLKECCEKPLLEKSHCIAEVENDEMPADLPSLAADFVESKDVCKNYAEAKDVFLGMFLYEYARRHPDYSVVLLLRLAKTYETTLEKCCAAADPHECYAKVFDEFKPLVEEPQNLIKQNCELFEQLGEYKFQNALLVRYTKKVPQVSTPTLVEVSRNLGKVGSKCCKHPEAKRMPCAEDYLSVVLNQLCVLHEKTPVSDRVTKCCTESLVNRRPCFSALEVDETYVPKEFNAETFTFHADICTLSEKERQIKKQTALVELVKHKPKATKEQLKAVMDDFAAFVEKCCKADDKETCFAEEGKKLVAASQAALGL
Description: The ELISA wells were coated overnight at 4° C. with one of the following ligands: 10 μg/ml of protein A in PBS, 10 μg/ml of mAb 9E10 in PBS, or 3 mg/ml of HEL in 0.1 M NaHCO₃ buffer, pH 9.6. After blocking the wells with PBS containing 2% Tween-20 (PBST), a dilution series of phage in PBST was incubated for 2 h. After washing with PBS, bound phage were detected as follows. In assays for binding to REL, phage was detected directly using a conjugate of horseradish peroxidase with an anti-M13 monoclonal antibody (Amersham) using 3,3′,5,5′-tetramethylbenzidine as substrate. In assays for binding to protein A, the phage (4×10¹⁰ TU/ml in PBS) was first biotinylated at 4° C. with biotin-NHS (Perbio) (50 μM final concentration) and detected by sequential addition of streptavidin-horseradish peroxidase conjugate (1 μg/ml) (Sigma-Aldrich) in PBST, and substrate as above. In assays for binding to human serum albumin (USA) (Sigma, coating at 10 μg/ml in PBS), the ELISA was performed in PBS supplemented with 2% skim-milk powder (PBSM) and bound phage were detected in two steps using a rabbit anti-fd bacteriophage monoclonal antibody (Sigma, 1/1000 dilution) and goat anti-rabbit IgG serum conjugated with horseradish peroxidase (Sigma, 1/1000 dilution) and substrate as above.

B6 and B7 cannot be ordered by “% HSA binding signal retained after heating” value (from here on “% HSA binding signal retained”): under 10% for the first, under 10% for the second.

B8 and B9 cannot be ordered by “% HSA binding signal retained” value: under 10% for the first, under 10% for the second.

B10 and B11 cannot be ordered by “% HSA binding signal retained” value: under 10% for the first, under 10% for the second.

These binders were tested against T5, human serum albumin (assay: phage ELISA on HSA, heated 80 C 10 min against unheated).
Description: (§1) A phage ELISA was performed according to the protocol of Section 5 with the following modifications. 1×10¹⁰ phage were either heat-treated (10 minutes at 80° C. in 100 μL aliquots) or left untreated. The samples were centrifuged for 10 minutes at 14,000 rpm at 4° C. and the supernatants were added to ELISA wells coated with HSA (with a dilution series of ⅓). After developing the ELISA, the OD450 nm values (y-axis) for each heat treated/unheated phage pair were plotted against the phage number α-axis) and the %-refoldability was calculated.

Going from B6 to B7, the “Refoldability (HSA binding retained after heating)” value falls from 1.5% to under 0.2%.

First: B9
Second: B12
The “Refoldability (HSA binding retained after heating)” value of the first is lower: 9.1% for the first, about 100% for the second.

B10 was tested, and the “Refoldability (HSA binding retained after heating)” value was 0.55%.

What follows are binders tested against T5, human serum albumin (assay: phage ELISA on HSA, purified phage, 1/3 dilution series).
Description: as §1

Going from B6 to B7, the “phage number, +Heat” value falls from 1e+10 phage to 9.75e+09 phage.

B8 and B9 are the same in “phage number, +Heat” value: 1e+10 phage for the first, 1e+10 phage for the second.

B12 and B10 are the same in “phage number, +Heat” value: 1e+10 phage for the first, 1e+10 phage for the second.

Going from B6 to B7, the “phage number, -Heat” value falls from 1.5e+08 phage to 2.1e+07 phage.

Going from B8 to B9, the “phage number, -Heat” value falls from 1.3e+09 phage to 5.7e+08 phage.

Going from B12 to B10, the “phage number, -Heat” value falls from 1e+10 phage to 5.5e+07 phage.

What follows are binders tested against T3, TNF-α (assay: phage ELISA on TNF-α coated wells, heated 80 C 10 min against unheated).

First: B13
Second: B1
The “% refolding (TNF-α binding retained after heating)” value of the first is lower: 80% for the first, 93% for the second.

In the case of B2, the “% refolding (TNF-α binding retained after heating)” value is reported as 98%.

The binders below were run against T6, protein A (UniProt P38507 37-477) (assay: phage ELISA on protein A, heated 80 C against unheated, three data points).
T6 construct: also called pA
Description: (§2) After biotinylation of the phage, for each clone, a 100 μl sample of phage was transferred to a thin-wall PCR tube (and the remaining biotinylated phage was kept on ice). The tube was placed in a PCR apparatus for incubation at 80° C. during 10 min (temperature of cover lid: 85° C.). After heating, the tube was rapidly cooled down to 4° C. in the PCR apparatus.
(§3) ELISA plates were coated and blocked as described in Section 4. The samples were transferred to the empty wells of coated/blocked ELISA plates, and incubated for 2 hours at room temperature. Unbound phage was then removed by washing the wells 6-ties with PBS. For detection, Str-HRP (from a 1 mg/ml stock in PBS) were diluted 1/2000 in PBS supplemented with 2% v/v TWEEN 20 (Polyoxyethylensorbitan monolaurate; for protein A-based ELISA) or 2% w/v BSA (for protein L-based ELISA), and 100 μl of the resulting solution was added to each ELISA well. After incubation for 1 hour at room temperature, the unbound conjugate was removed by washing the wells 6-times with PBS. For colorimetric reaction, a 10 mg/ml solution of TMB (tetramethylbenzidine) was diluted 100-fold in a buffer of 0.1 M sodium acetate, pH 6.0. Next, hydrogen peroxyde was added (0.4 ul per ml of buffer/TMB, and 100 ul of this solution was added to each ELISA well. After color (blue) developed, the reaction was stopped by adding 50 μl of 1 M sulfuric acid per well (color turns to yellow). The optical density was recorded at 450 nm.
These clones were characterized for refoldability on phage (according to the protocol of Section 5, but with three data points being taken) and in solution.

Compared with B14, B15 is higher in “Refoldability on phage (protein A binding retained after heating)” value (from here on “Refoldability on phage”): 62% for the first, 80% for the second.

Compared with B16, B17 is lower in “Refoldability on phage” value: 81% for the first, 19% for the second.

Going from B3 to B18, the “Refoldability on phage” value falls from 82% to 80%.

What follows are binders tested against T6, protein A (assay: phage ELISA on protein A, heated 80 C against unheated, titration (Section 5)).
Description: as §2, §3

First: B16
Second: B19
The “% refolding (protein A binding retained after heating)” value of the first is lower: 2.11% for the first, 29.5% for the second.

First: B3
Second: B18
The “% refolding (protein A binding retained after heating)” value of the first is lower: 18.5% for the first, 25% for the second.

Going from B20 to B21, the “% refolding (protein A binding retained after heating)” value falls from 35% to 25%.

Going from B22 to B23, the “% refolding (protein A binding retained after heating)” value rises from 25% to 35%.

Each binder was assayed against T3, TNF-α (assay: RBA-ELISA: dAb competes with binding of soluble TNF-α to immobilised TNF-α receptor).

First: B13
Second: B1
The IC50 of the first is 6.7-fold lower: 30 nM for the first, 200 nM for the second.

Binder B2 has an IC50 of 900 nM.

What follows are binders tested against T6, protein A (assay: phage ELISA on protein A, multivalent phage 5x10^11 TU/ml, 80 C 10 min against untreated).
Description: The ELISA wells were coated overnight at 4° C. with one of the following ligands: 10 μg/ml of protein A in PBS, 10 μg/ml of mAb 9E10 in PBS, or 3 mg/ml of HEL in 0.1 M NaHCO₃ buffer, pH 9.6. After blocking the wells with PBS containing 2% Tween-20 (PBST), a dilution series of phage in PBST was incubated for 2 h. After washing with PBS, bound phage were detected as follows. […] In assays for binding to protein A, the phage (4×10¹⁰ TU/ml in PBS) was first biotinylated at 4° C. with biotin-NHS (Perbio) (50 μM final concentration) and detected by sequential addition of streptavidin-horseradish peroxidase conjugate (1 μg/ml) (Sigma-Aldrich) in PBST, and substrate as above.

In the case of B3, the “fold reduction of binding after heating” value is reported as 3 fold.

Each binder was assayed against T2, TNF receptor 1 Fc fusion protein (assay: receptor binding ELISA: dAb mixed with TNF (10 ng/ml) and added to TNFR1-Fc captured by anti-human Fc; bound TNF detected with biotinylated anti-TNF antibody; blocked ligand TNF).
Description: Briefly, MAXISORP plates were incubated overnight with 30Mg/ml anti-human Fc mouse monoclonal antibody (Zymed, San Francisco, USA). […] The reaction was stopped by the addition of HCl and the absorbance was read at 450 mm.

B4 and B24 are within 1.5-fold of each other in “IC50 (read off the curve)” value: about 5 nM for the first, about 6 nM for the second.
